Test results taken from the DeepSol protein solubility set.

Assay: soluble on expression in E. coli; label from the status in PepcDB or PDB records

EVQLVESGGGLVQPGGSLRLSCAASGFTISSSSIHWVRQAPGKGLEWVAWVLPSVGFTDYADSVKGRFTISADTSKNTAYLQMNSLRAEDTAVYYCARRVCYNRLGVCAGGMDYWGQGTLVTVSSASTKGPSVFPLAPSSKSTSGGTAALGCLVKDYFPEPVTVSWNSGALTSGVHTFPAVLQSSGLYSLSSVVTVPSSSLGTQTYICNVNHKPSNTKVDKKVEPKSCDKTH
soluble on expression in E. coli: soluble

MSIVTVQLGQCGNQIGFEVFDALFRDSHCSQGLCSKRDNEAYQASCRERFFREEENGVPVARAVLVDMEPKVINQTLSKAAQSGRWNYGQHTSFCQKQGSGNNWAYGYSVHGPKHEESIMNLIQTEVEKCDSLSGFFIIMSMAGGTGSGLGAFVTQKLQDQYSSSLKMNQIIWPYGTGEVIVQNYNSILTLSHLYRSSDALLIHENDAVHKICAKRMNIKQISFRDLNQVLAHQLGSVFQPTYSEDSSFHYRRNPLGDLMEHLVPHPEFKMLGVRNIPQMSAASLAYSAFTWAGLLKHLRQMLISSAKMEEGINWQVRPPLTGLPPIGKASAHKEHHFNTSLANLVVLRGREVHSADVEGFKDPALYTSWLEPVDAFSVWKTQRAFDKYEKSAALVSNSQLLVKPLDMIVGKAWNMFSSKAFIHQYTKFGMEEEDFLDSFALLEQVVASYGSLGP
soluble on expression in E. coli: not soluble

MAHHHHHHMDPLLLGTSAGLERNCTVLFSHLTALCGTKPAGEPHNPLQVHLRVDDGHRDTALQHIKVLYDVAVRHNPRTSVTVVPLAPLEYYETPNRNTNSREGHKLPLFTASLMTPNCGFNPVYKGVAVGGTFDRLHGGHKLLLTTALLHATQVLRIGVTVSTMLTTKIHADLIEPFEVRCAAVTKFAHLLRPDLGLEVAGIADRAGGADSDPSLEALVVSPETVGALPSINTARLSVGLKPLECVLVPYVGVCDDEESRVSSTNIRKRLCELST
soluble on expression in E. coli: soluble

MGSDKIHHHHHHMIHLSNITKQHGAQVLFRDASFQILPGTRTGLVGPNGAGKTTIFRIITGEEEVDAGEMTCAKKTTVGYFSQDVGEMAGRSALEEVMAGSAETVRLAAELKEMEAAMCEPQSDDEMAALLERYGAAQEEFEHRGGYDLDTRAQTVLTGLGIGPDRFHHPVESFSGGWKMRIALAKILTLKPDVLLLDEPTNHLDVESIIWLEEWLANDFDGALLMTSHDRDFMNRIVTRIIEVANRTVTTYGGNYDFYERERDIRREQLLASHKRQQEMLAKEEEFIARFAARASHAAQVQSRVKKLEKIERIEIPAEERMVRFEFSEPPRSGEDVVVMENLGKVWQTPDGGEKPVFGGVSGIIRRLNKIAVVGVNGAGKSTFLKVLAGQTEPTTGTVTIGANVELGYFSQHAMEVLDPKKTVFETVQEAMPLANIGVIRNLLAAFLFQGDTVDKRVENLSGGEKSRVVLATLLARPVNFLVLDEPTNHLDIRSREILLDALRNFAGTVVIVSHDRHFLRSLVDRVFEVDHGEMRVYEGDYSYYLRKSHELHGLP
soluble on expression in E. coli: not soluble

MHTQYFPNRRPGRIQPLGIQQNTIYVYVKVKHVLEFYAIDIRLPYHWHQIAKLNISEMSYTFSTLSPDFRYIYVLFLRVAREMATFAVQRFDLENNGTADLFLLNAAEELYRVFEVPLDSVTLRCDSGGQLVLYDRSIVQGEIPFWTIRLEESTKTFRILKNSIPTAGDDTERNSALFTIAVDPVNRCFAKLMSPRTMLVYTEERKRWVEYHIPVEQSLQDIFGSDGFPVEEIRGIRETFGTHGHRMGALQTRLTFHDLNDVLVARCLHLHWNTTATVEFDHVNREIQVRLLAKFPLDDEVTRMFYLIASKEHHVFLGVYDTAIVHIKSPKLEEIVGWRMQKMLMRDGHKDEVLQISNYRQLLALALTKYADKDEDLAENLKNLGIEPPRKKLVVMEIELD
soluble on expression in E. coli: not soluble

GSFLLPKLTSKKEVDQAIKSTAEKVLVLRFGRDEDPVCLQLDDILSKTSSDLSKMAAIYLVDVDQTAVYTQYFDISYIPSTVFFFNGQHMKVDYGSPDHTKFVGSFKTKQDFIDLIEVIYRGAMRGKLIVQSPIDPKNIPKYDLLYQDI
soluble on expression in E. coli: soluble

MNYSPKQGVRSHGLPHDPFKSSTVPRPIGWISTVSKDGKDNLAPYSQYQNLTWDPPMVMFAANQSVLGDHERKDTVKNAEETGWFVWNMATYDLREAVNLSSKALPPEEDEFEYAGVTKEACIEAPGYRVKESPVHFECEYVQTIRIPTGDPVSTVDIVIGRVAQVHIDDKVILDNGKLDIKSIKPIARLGYYDYTVVNEIFEMKAPAASKEELAGLEGRNFDNQSDEKR
soluble on expression in E. coli: not soluble

MKKWWLAAVVAMIAVGGCAKEETEQKQSLQGANLLRTQTSGTAKHAELNQGPAERAASYLRGRDDVRDVVAVNSEDRLLIAYQIPHMKRWSRKQIEKDIDQKLRDLFPGYDVVSSSDLKIFWKTKELKANMDNRRWDERKVNREIRRIEKLSKEQT
soluble on expression in E. coli: not soluble

MIKKVIKRDGREKDFDILRIEHAIKKAEKSIEVNECWDDDALCDILMKIDETNLKKIEIEKVQDIVIDVLNKYNKNVAKAYSDYRKERTKIRQDKSNLMKIIDKIGVETDRDNANVGNNFSSKLLRIASESNKVHNLLK
soluble on expression in E. coli: not soluble

MFYILNNVLKNIKTLDNVKSKFFLKDSFLKNKLKANNLDDNLSSHIFFNEIFVSLRDDEKKEEHKKVLLFNKVRNDKKHRKRAFQKRGYWKKMHYFIRKNNMMSYAFKVQNIDYEKIKKLKRGEVYSN
soluble on expression in E. coli: not soluble

MEIKKGLEDVYVKETEITYIDGELGRLYYRGYSIYDLAEFSNFEEVSYLILYGKLPNREELNWFQEKLREERYLPDFIIKFLREVRKDAQPMDILRTAVSLLGIEDSKNDERTDIKGIKLISKFPTIVANYARLRKGLDIIEPDPKLSHSENFLYMLYGDRPNEIKSKAMDVTLILHIDHEMNASTFASLVVASTFSDLYSSIVAGISALKGPLHGGANYEALKMFKEIGSPEKVNDYILNRLSNKQRIMGFGHRVYKTYDPRARILKQYAKLLAEKEGGEIYTLYQIAEKVEEIGIKYLGPKGIYPNVDFFSSIVFYSLGFEPDFFPAVFASARVVGWVAHIMEYIKDNKIIRPKAYYKGEIGKKYIPIDSR
soluble on expression in E. coli: soluble

MADKYLTQSPAGEFVMFASDDGEVRVECRFEQETLWLPQATIANLYQITPQAVTQHIKAIYEEGELEQNATCKSYLQVQQEGSRQVSRNRLHYSLPVILAVGYRVRSPRGTQFRQWATQTLQKYLIKGFVMDDERLKNPPVGSSAVPDYFDEMLERIRDIRASERRVYLRVREIFALAADYQPSLKETTQFFQTIQNKLHFACTGHTAAELIHQRADASQPHMGLTSYKGEEVRKDDVTVAKNYLTQDEVSELNRVVNMWLDFAEDQARRRQQIFLRDWQDKLDQFLQFNDREVLQGAGKVTKKMADEKAQAEYSQFAEQQRRLKEAEGEKDIAGLLQWETEPKK
soluble on expression in E. coli: not soluble

MPFEIGTMPIMSIDPKLLEVLACPQDKGPLKYLEAEQVLVNERLEIAYRIDDGIPVMLVDESIAWPPAEKAAALEHHHHHH
soluble on expression in E. coli: not soluble

MGHHHHHHSHMQPAKEVTKASDGSLLGDLGHTPLSKKEGIKWQRPRLSRQALMRCCLVKWILSSTAPQGSDSSDSELELSTVRHQPEGLDQLQAQTKFTKKELQSLYRGFKNECPTGLVDEDTFKLIYAQFFPQGDATTYAHFLFNAFDADGNGAIHFEDFVVGLSILLRGTVHEKLKWAFNLYDINKDGYITKEEMLAIMKSIYDMMGRHTYPILREDAPAEHVERFFEKMDRNQDGVVTIEEFLEACQKDENIMSSMQLFENVI
soluble on expression in E. coli: not soluble

MGSDKIHHHHHHMSKVVKFGGSSVANSEQFKKVKQIILADPDRKYVVTSACGKSGQEDHKVTDLLYLCAAHITYDVSYESIFQSIVDKYMEIKRSLGLKIDLAGEFAKIRQNMAQNLNLDYLVSRGEYLTGLCLAEYLDADFRDASQVIRFHYDGSIDLDKSQELLKAQVDPGRRVVIPGFYGSLPNGVIKVMSRGGSDITGSIVANAFDVDVYENWTDVSGFYVADPRIIKDPVQIPRVTYSELRQMSYMGANVLHDDAVFPVRQKNIPINVRNTNHPENPGTMIMNDCSELDAQERPHVITGITGKQDFTVITMVKSHVSAEAGFLRKVLAVFEKFQISIESVPVTVDTFSIVVQTKKIERYLYEIVAELQQDLHLDDIQVESQQAMLAVVGRAMRQMPGMSGKILSTLGDQQINIRTINQACDEQSIVIGVNNQDLVPAIKAIYQQFISEERVER
soluble on expression in E. coli: not soluble
